One may read the Kd as the constant that tells how readily two partners part at equilibrium.

This is an account of results in article PMC3257533.

In the experiment the target is paclitaxel-stabilized microtubules. Nature of the experiment: co-sedimentation.

B1: MBP-Nsk1 (recombinant maltose-binding protein-Nsk1, wild type) (natural protein)
chain: MAYKLSLSAVEPLLIFPAAPFSTKKEKSTFQNNLISSDVFSSALKPLSPLKSLVADFSTHSNPSKDNQLISPPKINHREFLNEEKESDTQTRYLKQLINICNSPSKNHETSLSPSKSTIDNNERKLDNEIDNYKHDVKYSPYKGQGKTSNPSQGTTKCPGIFEEDNFFSVSPKRRKNLFEKYGKTDLGKPARVPSPKKSLSSTIKSPPSRVKLPTSILSKSPPLKVPNKNRSSTFSPLRTPTSSSKTFVIVDHSTPSPPSIRTKLEAFAPNSTFATQKRLRRLATLESSPALRSTLKSLQSKSSPVKLLKLKEEKAKIKNQLFKSEEEKDPVGKQKLPLESSLSPLDHSSAEKEMQKAPAKNKRRRTGSLETGLYPKESPTPSKKRSKRVLWSLKHIVSPGNREKHSLNSTPESIMKKDTKWPQNLAKNNINSEPNTPTKSNIDTGKAHSARAHKTRKNIQS
For B1, the Kd was found to be 0.23 µM.
